Assay results reported in patent publication EP4674869A1 (Immuneoncia Therapeutics, Inc., dated 2026).

Legend:
CD47 [1] = molecular target: T1, CD47 (UniProt Q08722 19-323, limits assumed); assay: binding to Raji cancer cells; method not stated
T1 construct: whole, on cells; also called CD47 on cancer cells (MDA-MB-231, Raji)

CD47 [2] = molecular target: T1, CD47; assay: binding to MDA-MB-231 cancer cells; method not stated

T1 sequence (Q08722 19-323 limits assumed): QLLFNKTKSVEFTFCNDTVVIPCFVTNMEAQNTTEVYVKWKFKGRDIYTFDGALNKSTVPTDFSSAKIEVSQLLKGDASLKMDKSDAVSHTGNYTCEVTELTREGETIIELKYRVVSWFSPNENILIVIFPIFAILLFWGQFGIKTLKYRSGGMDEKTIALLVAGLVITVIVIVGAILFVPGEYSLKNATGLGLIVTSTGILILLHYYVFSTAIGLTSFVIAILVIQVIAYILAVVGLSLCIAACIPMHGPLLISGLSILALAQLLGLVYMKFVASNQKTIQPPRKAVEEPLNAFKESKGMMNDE

EC50 (CD47 [1]): 4.77 µg/mL
EC50 (CD47 [2]): 5.73 µg/mL
B1: IMC-002 (antibody, human IgG4 S228P, lambda, V domains shown)
VH: QVQLVQSGAEVKKPGASVKVSCKASGYTFTSYYMHWVRQAPGQGLEWMGIINPSGGSTSYAQKFQGRVTMTRDTSTSTVYMELSSLRSEDTAVYYCARSTLWVSEFDYWGQGTLVTVSS
VL: QSALTQPASVSGSPGQSISISCTGTSSDVGGHNYVSWYQQHPGKAPKLMIYDVRNRPSGVSNRFSGSKSGSTASLTISGLQTEDEADYYCNSYTGSRTYVFGSGTKLTVLG
notes: Fully human IgG4 kappa antibody with an S228P hinge mutation; also called anti-CD47 antibody; C47B10-H3-D4
